Target: T1, Snu17 of the RES complex purified from yeast (S. cerevisiae (endogenous in the …, UniProt P40565 1-148))
T1 sequence (looked up): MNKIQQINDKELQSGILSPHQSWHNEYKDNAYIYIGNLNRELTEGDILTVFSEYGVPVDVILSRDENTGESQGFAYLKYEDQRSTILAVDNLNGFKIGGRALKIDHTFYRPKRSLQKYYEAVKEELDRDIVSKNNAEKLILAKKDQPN
Assay: SEC

Binder	stoichiometry N
Bud13 of the RES complex purified from yeast (natural protein, UniProt P46947 1-266, looked up) MALHQYLSETYGPTKPKNKTKKKKKESKSDANSDKTSLIVKERLSTLQQEQEKSGVASFSKFDKQKSKNIWKNLETNELSHAITHPSASSITGNESKNDLKEIRAQEPLVTVADKSKTRKTIYRDAQGHKIQEDSKIDDSSFSRSKYEDEKAAEREQYLKNLNMGDVQKLGINVDAHDKKKNQTASSLTIEDPAITFTHDKERTVKTSLLGRKLYDKPAPENRFAIMPGSRWDGVHRSNGFEEKWFAKQNEINEKKVQSYTLQEDY	1
Pml1 of the RES complex purified from yeast (natural protein, UniProt Q07930 1-204, looked up) MFHRRKRPYNTRNYGHDDKKFKSQYIDIMPDFSPSGLLELESNNKEGIALKHVEPQDAISPDNYMDMLGLEARDRTMYELVIYRKNDKDKGPWKRYDLNGRSCYLVGRELGHSLDTDLDDRTEIVVADIGIPEETSSKQHCVIQFRNVRGILKCYVMDLDSSNGTCLNNVVIPGARYIELRSGDVLTLSEFEEDNDYELIFMNV	1
